{"source": "patent US20230071765A1", "about": "“COMPOSITIONS HAVING THIOREDOXIN ACTIVITY AND RELATED METHODS” (ORPRO THERAPEUTICS, INC., priority 2020, published 2023)", "molecules": {"B1": {"name": "ORP100S: thioredoxin with monothiol active site, Cys35 and non-active Cys 62, 69 and 73 substituted with serine (SEQ ID NO:29) (protein)", "chain": "MVKQIESKTAFQEALDAAGDKLVVVDFSATWCGPSKMIKPFFHSLSEKYSNVIFLEVDVDDSQDVASESEVKSMPTFQFFKKGQKVGEFSGANKEKLEATINELV", "modifications": "synthetic peptide motif"}}, "type_in_all_cases": "physicochemical", "key": {"[1]": {"test": "DTNB assay of reduction state (free SH groups)", "conditions": "for % reduced (68 hrs): 25° C., red fraction removed", "method": "Functional assays 1. Reduction state of ORP100S was quantified using DTNB which reacts with free SH groups resulting in a yellow color change at 412 nm. Fifty microliters of 2.5 mM rhTrx was added to a 96-well plate, followed by 175 microliters of sample buffer and 25 microliters of 6 mM DTNB. After reactions were initiated by the addition of DTNB, change in kinetic absorbance at 412 nm due to DTNB reduction was monitored spectrophotometrically at 30° C. ORP100S concentration was determined by A280 (Nanodrop) using the extinction coefficient of human Trx-1 (7,000). The actual concentrations of free sulfhydryl groups were calculated based on the absorbance at 412 nm and the extinction coefficient of DTNB (14,150) in order to determine the reduction state as percentage of free sulfhydryl. […] 2. Percent of free monomer ORP100S in solution was determined using SEC. Samples were analyzed on a BioBasic S-300 250×4.6 column (Thermo Scientific) run on an Agilent 1100 HPLC system. The SEC-HPLC mobile phase buffer consisted of 40 mM ammonium acetate (pH 5.5), 2 mM EDTA and 450 mM NaCl. Low pH minimized dimerization while the 450 mM NaCl concentration improved resolution. The flow rate was 0.35 mL/min and absorbance was monitored at 280 nm. The length of each run was 20 minutes. The ORP100S monomer percentage was determined by integration of the area under the peak of the monomeric fraction divided by the total area under the curve of the chromatogram. 3. Disulfide bond reduction activity of ORP100S was quantified by assaying the reduction state of a small protein (human insulin) which in its heterodimeric form contains two intermolecular and one intramolecular disulfide, all three of which are known to be suitable thioredoxin substrates. Insulin reduction has classically been used to quantify thioredoxin activity by absorbance change following addition of NADPH and TrxR (Holmgren A., 1979, Thioredoxin catalyzes the reduction of insulin disulfides by dithiothreitol and dihydrolipoamide, J Biol Chem 254:9627-32). Such an approach is not suitable for monothiol C35S thioredoxins ORP-100 and ORP100S due to 1) the lack of cycling resulting from stoichiometric covalent linkage to the disulfide bond substrate and 2) the inability of NADPH and TrxR to reduce Cys32 of the oxidized monothiol Trx active site. Consequently, a new assay was developed based on the use of reverse-phase (RP) HPLC to monitor the rate of conversion of disulfide-bonded insulin heterodimers to monomeric forms. The two chains of human insulin have a total of six Cys residues which form three disulfide bonds in its mature structure. When ORP100S in the reduced form is incubated with dimeric insulin it reacts with these disulfide bonds to disrupt them, simultaneously forming covalent linkages to the ORP100S Cys32. […] The ORP100S samples were incubated with 10 mg/mL insulin for various time points (0-90 min) and the reactions were stopped by addition of iodacetic acid (IA) and trifluoroacetic acid (TFA). Relative activity at each time point was determined from changes in the area under the insulin heterodimer peak following separation over RP-HPLC (Agilent 1100) using an Intrada WP-RP 50×3 (Imtakt) column. Buffer A was 0.1% TFA and Buffer B was 0.1% TFA in acetonitrile. The gradient was […] in 5 min followed by 30 to 60% B in 45 min, then 60 to 80% B for an additional 5 min. The flow rate was 0.2 mL/min and absorbance was measured at 280 nm. In order to evaluate the change in the intact insulin molecule a time 0 baseline was first established using 1 M IA and 0.1% TFA without the addition of ORP100S. The area under the intact insulin heterodimer peak was then determined and set as equivalent to 100%. After the reaction with ORP100S the area of the intact insulin peak (corresponding to retention time) was measured. The percent reduction in intact insulin was then calculated from the decrease in the area following reduction divided by the area at time 0 multiplied by 100."}, "[2]": {"test": "check for precipitates by centrifugation", "conditions": "25° C., 0-232 hours", "method": "The stability of ORP100S without the red fraction was evaluated at room temperature (25° C.) by SEC analysis as described in the preceding Examples. Protein solutions were prepared in PBS (saline) at concentrations of 70, 80, 90, 100 and 110 mg/ml corresponding to 6.0, 6.8, 7.7, 8.5 and 9.4 mM. These were incubated at room temperature for 0, 20, 44, 68, 140, 188 and 232 hours. At each time point tubes were centrifuged at 1000 RFC to check for precipitates and percent monomeric ORP100S determined by SEC. Additionally, at the 68 hr time point DTNB assays were performed to evaluate the degree of reduction."}, "[3]": {"test": "stability analysis, lyophilized vs solution (DTNB and SEC-HPLC)", "method": "Prior work, e.g. WO 2006/090127, teaches compositions for maintenance of thioredoxin in the reduced state. Significant experimentation was required to derive compositions able to keep thioredoxin reduced during storage, and these compositions were complex and required saccharide derivatives and EDTA as excipients. […] ORP-100 and ORP100S proteins were reduced with 100 mM DTT and exchanged over a NAP-5 column into volatile 20 mM ammonium acetate buffer at pH 5.5 to remove residual reductant. Half of the material was frozen at −80° C. then lyophilized while the remainder was kept in solution at either 5° C. or 40° C. for various time points (“PH5.5”). Lyophilized protein was reconstituted back into 20 mM ammonium acetate pH 5.5 immediately prior to evaluation at each time point (“Lyophilized”). Stability was assessed by measuring both free SH groups (DTNB chromogenic assay) and the percent monomers (SEC-HPLC).\nFor FIG. 3: PH5.5: ORP-100 or ORP100S protein maintained in liquid formulation of 20 mM ammonium acetate, pH 5.5 for 0, 3, 7, 14, 21, 28, 90, or 180 days. Lyophilized: ORP-100 or ORP100S protein stored in the lyophilized form at 5° C. or 40° C. for the 0, 3, 7, 14, 21, 28, 90, or 180 days and assayed following reconstitution in 20 mM ammonium acetate, pH 5.5. Percent free sulfhydryl (reduction state) at 5° C. Second panel: Percent monomer determined by SEC assay at 5° C. Third panel: Percent free sulfhydryl at 40° C. Fourth panel: Percent monomer determined by SEC assay at 40° C."}}, "data": [{"molecule": "B1", "values": [{"measurement": "% reduced (68 hrs)", "setting": "[1]; 70 mg/mL in PBS", "result": 109, "unit": "%"}, {"measurement": "% reduced (68 hrs)", "setting": "[1]; 80 mg/mL in PBS", "result": 87, "unit": "%"}, {"measurement": "% reduced (68 hrs)", "setting": "[1]; 90 mg/mL in PBS", "result": 91, "unit": "%"}, {"measurement": "% reduced (68 hrs)", "setting": "[1]; 100 mg/mL in PBS", "result": 91, "unit": "%"}, {"measurement": "% reduced (68 hrs)", "setting": "[1]; 110 mg/mL in PBS", "result": 102, "unit": "%"}, {"measurement": "DTNB % reduced", "setting": "[1]; Ox:Red 0:100 mixture", "result": 86, "unit": "%"}, {"measurement": "DTNB % reduced", "setting": "[1]; Ox:Red 25:75 mixture", "result": 73, "unit": "%"}, {"measurement": "DTNB % reduced", "setting": "[1]; Ox:Red 50:50 mixture", "result": 55, "unit": "%"}, {"measurement": "DTNB % reduced", "setting": "[1]; Ox:Red 75:25 mixture", "result": 49, "unit": "%"}, {"measurement": "DTNB % reduced", "setting": "[1]; Ox:Red 100:0 mixture", "result": 22, "unit": "%"}, {"measurement": "Precipitate (all time points)", "setting": "[2]; 70 mg/mL in PBS", "result": "None"}, {"measurement": "Precipitate (all time points)", "setting": "[2]; 80 mg/mL in PBS", "result": "None"}, {"measurement": "Precipitate (all time points)", "setting": "[2]; 90 mg/mL in PBS", "result": "None"}, {"measurement": "Precipitate (all time points)", "setting": "[2]; 100 mg/mL in PBS", "result": "None"}, {"measurement": "Precipitate (all time points)", "setting": "[2]; 110 mg/mL in PBS", "result": "None"}, {"measurement": "storage stability (free SH, percent monomer)", "setting": "[3]; lyophilized form, six months at 40° C.", "result": "excellent storage stability"}, {"measurement": "monomer stability by SEC-HPLC vs. ORP-100", "setting": "[3]; particularly first week of storage in liquid formulation", "result": "slightly better monomer stability"}]}]}
